# Experimental data: the supplement of paper PMC12855868
# B1: library; numbered along this chain (parent)
# chain: MAAAGGARLLRAASAVLGGPAGRWLHHAGSRAGSSGLLRNRGPGGSAEASRSLSVSARARSSSEDKITVHFINRDGETLTTKGKVGDSLLDVVVENNLDIDGFGACEGTLACSTCHLIFEDHIYEKLDAITDEENDMLDLAYGLTDRSRLGCQICLTKSMDNMTVRVPETVADARQSIDVGKTS
# Variants of: B1
# Test: scaled log2 fold change in cell abundance, elesclomol vs control (0 = silent mean, 1 = nonsense mean) (scaled log2 ratio); higher = higher viability under elesclomol (loss of FDX1 cuproptosis function)
# Details: glucose 10 mM
# Experimental: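 Deep mutational scan of full-length human FDX1: a pooled saturation-mutagenesis ORF library (every residue 2-184 mutated to all 19 amino acids plus stop, and silent codons where available) was expressed by lentivirus in FDX1-knockout ABC1 (14 days) or HEK293T (11 days) cells grown with elesclomol (ES) or DMSO control. Variant abundance came from ORF sequencing. The log2 fold change (ES vs control, mean of duplicates) was centred on the silent-variant mean (0) and scaled to the nonsense-variant mean (1). Higher values mean greater viability under ES, i.e. loss of FDX1 function in cuproptosis.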
# [1] = with ABC1 FDX1 KO, elesclomol 5 nM, 14 days
# [2] = with HEK293T FDX1 KO, elesclomol 40 nM, 11 days
# 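Also: variant abundance is its share of total variant reads in each endpoint sample, from next-generation sequencing of the integrated ORF PCR-amplified out of genomic DNA.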
Variant,scaled log2 fold change [1],scaled log2 fold change [2]
A4Q,-0.35,–
A4I,0.158,0.102
A4C,0.0627,-1.09
A4G,-0.52,-0.212
A4F,-0.326,0.068
A4V,-0.0619,-0.566
A4T,0.364,0.164
A4K,0.11,0.267
A4N,0.0756,-0.335
A4W,0.154,-0.542
A4R,-0.535,-1.29
A4Y,0.257,0.669
A4L,-0.0228,0.193
A4M,0.0396,-0.34
A4E,-0.03,-0.0483
A4S,0.221,0.988
A4D,0.12,-0.0733
G6S,-0.502,-0.676
G6E,0.0669,–
G6Q,0.208,-0.0414
G6V,-0.0163,0.974
G6P,0.13,0.0736
G6C,0.339,0.86
G6L,0.106,0.412

Variant,scaled log2 fold change [1],scaled log2 fold change [2]
G6K,0.0797,-0.166
G6N,0.371,0.29
G6Y,-0.0292,0.639
G6I,0.0452,-0.31
G6M,-0.159,-0.651
G6R,0.173,0.123
G6D,-0.00796,-0.86
G6H,0.23,-1
G6A,0.239,-0.652
G6F,0.153,-0.294
G6W,0.149,0.125
R8L,-0.0928,-0.46
R8Y,0.407,0.189
R8Q,0.308,-0.248
R8D,0.629,-0.108
R8E,0.00393,-0.121
R8T,-0.656,-0.382
R8F,-0.388,-0.798
R8A,0.393,0.0204
R8K,0.28,-0.152
R8C,0.116,1.05
R8S,0.0501,-0.479
R8V,0.395,0.881
R8I,0.286,0.291

Variant,scaled log2 fold change [1],scaled log2 fold change [2]
R8N,0.424,-0.174
R8P,0.109,-0.395
R8M,-0.909,-0.722
R8W,0.232,0.198
R8H,0.292,-0.336
A2Y,-0.115,-0.115
A2W,-0.098,-0.566
A7D,0.0271,0.843
A7L,0.0503,0.262
A7R,0.122,–
A7S,0.0146,0.154
A7T,0.268,–
A7G,0.124,-0.098
A7V,-0.5,0.903
A7N,-0.22,0.0857
A7F,0.0991,0.612
A7E,0.407,–
A7I,0.0041,-0.412
A7K,0.136,-0.253
A7H,0.443,0.0712
A7W,0.0847,0.227
A7Y,0.0823,0.506
A7P,0.316,–
A7C,0.0253,0.515

Variant,scaled log2 fold change [1],scaled log2 fold change [2]
A7M,-0.526,0.892
A7Q,-0.0571,–
A3P,0.16,-0.173
A3Y,-0.181,0.561
A3L,-0.261,0.507
A3E,0.299,1.21
A3R,0.464,-0.63
A3I,0.134,-0.0748
A3F,-0.338,0.0034
A3H,0.204,-0.0465
A3N,-0.349,-0.21
A3V,0.0935,0.00813
A3S,0.514,-0.0887
A3K,0.135,0.17
A3W,0.38,0.562
A3D,0.186,0.572
A3T,0.122,-0.0717
A3C,0.227,0.756
A3G,0.242,-0.188
A3Q,0.292,-0.249
A3M,-0.131,0.396
G5D,0.153,0.63
G5W,0.225,0.578
G5K,0.104,0.00379

Variant,scaled log2 fold change [1],scaled log2 fold change [2]
G5E,-0.0118,0.75
G5S,0.203,-0.121
G5F,0.228,0.695
G5T,-0.0306,0.915
G5I,0.0847,-0.0288
G5V,0.268,-0.396
G5Q,0.0157,-0.646
G5L,0.0231,-0.373
G5M,0.245,-0.441
G5A,-0.65,0.164
G5P,0.0147,-0.46
G5H,0.507,1.08
G5R,-0.43,-0.244
G5Y,-0.325,0.00599
G5N,0.381,0.127
L9G,0.0757,1.11
L9F,-0.0603,0.0924
L9D,0.403,-0.529
L9C,0.282,-0.0336
L9I,-0.993,-0.482
L9H,-0.458,0.226
L9E,0.282,-0.224
